Changes are numbered by the printed parent chain.
T1: PRLR-expressing cells (T47D) (Homo sapiens, UniProt P16471)
T1 construct: a native PRLR expressing cell line (T47D); endogenous in cells; host or cells: T47D
T1 sequence (P16471 25-622): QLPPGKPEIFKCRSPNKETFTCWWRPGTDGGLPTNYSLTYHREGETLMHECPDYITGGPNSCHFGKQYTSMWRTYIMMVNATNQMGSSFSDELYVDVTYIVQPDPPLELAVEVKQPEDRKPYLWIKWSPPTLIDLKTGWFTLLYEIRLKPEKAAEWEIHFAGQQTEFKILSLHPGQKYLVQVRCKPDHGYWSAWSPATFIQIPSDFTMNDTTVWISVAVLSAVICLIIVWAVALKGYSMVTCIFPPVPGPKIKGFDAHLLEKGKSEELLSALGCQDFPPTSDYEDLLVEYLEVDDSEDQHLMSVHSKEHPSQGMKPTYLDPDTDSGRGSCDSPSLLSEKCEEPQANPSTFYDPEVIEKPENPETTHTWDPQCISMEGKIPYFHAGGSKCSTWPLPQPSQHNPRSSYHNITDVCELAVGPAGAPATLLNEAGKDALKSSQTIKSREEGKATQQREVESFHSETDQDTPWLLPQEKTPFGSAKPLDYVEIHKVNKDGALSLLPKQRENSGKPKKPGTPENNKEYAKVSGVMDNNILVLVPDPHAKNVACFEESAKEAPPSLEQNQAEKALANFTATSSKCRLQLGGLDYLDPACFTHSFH

B1: H1H6960N: human IgG1 Fc form of H2M6960N; anti-PRLR; HCVR/LCVR SEQ ID NOs 322/330 (antibody, V domains shown)
VH: EVQLVESGGGLVKPGGSLRLSCAASGITFSSYSMNWVRQAPGKGLEWVSSISTRSSLIHYADSVKGRFTISRDNAKNSLYLQMNSLRDEDTAVYYCARWDAAAAFDYWGQGTLVIVSS
VL: DIQLTQSPSFLSASVGDRVTITCWASQGISSYLAWYQQKPGKAPKLLIYVASTLQSGVPSRFSGSGSGTEFTLTISSLQPEDFATYFCQQLNSYPLTFGGGTKVEIK
modifications: human IgG1 Fc
B2: H1H6975N: human IgG1 Fc form of H2M6975N; anti-PRLR; HCVR/LCVR SEQ ID NOs 370/378 (antibody, V domains shown)
VH: EVHLVESGGGLVQPGGSLRLSCAASGFTFSSYEMNWVRQTPGKGLEWISHISSRSVIIYYADSVKGRFTISRDNAKNSLFLQMNSLRAEDTAVYFCAGITIFGIPEYWGQGTLVTVSS
VL: EIVLTQSPATLSLSPGERATLSCRASQSVSSYFAWYQQKPGQAPRLLIYDASSRATGIPTRFSGSGSGTDFTLTISSLEPEDFAVYYCQQRSSWPITFGQGTRLEIK
modifications: human IgG1 Fc
B3: H1H6762P: anti-PRLR antibody, human IgG1 Fc; HCVR/LCVR SEQ ID NOs 2/10 (antibody, V domains shown)
VH: QVQLVESGGGVVQPGRSLRLSCAASGFTFSHYGMVWVRQPPGKGLEWVALISFDGTTKYYADSVKGRFTISRDNSKNTLYLQMNSLRAEDTAVYFCVGAIAAAAFDLWGRGTLVTVSS
VL: EIVMTQSPATLSVSPGERATLSCRASQSVSSDLAWYQQKPGQAPRLLIYSASARATGIPARFTGSGSGTDFTLTISSLQSEDFAVYYCQQYNNWPMYTFGQGTKLEIK
modifications: human IgG1 Fc
B4: H1H6959N2: human IgG1 Fc form of H2M6959N2; anti-PRLR; HCVR/LCVR SEQ ID NOs 306/314 (antibody, V domains shown)
VH: EVQLVESGGGLVQPGRSLRLSCAASGFTFDDYAMHWVRQAPGKGLEWVSGISWHSGIIGYADSVKGRFTISRDNAKNSLYLQMNSLRTEDAALYYCAKIGSYFYFDSWGQGTLVTVSS
VL: EIVLTQSPGTLSLSPGERATLSCRASQSVSSNYLAWYQQKPGQAPRLLIYGASSRATGIPDRFSGSGSGTDFTLTISRLEPEDFAVYYCQQFGSSGYTFGQGTNLEIK
modifications: human IgG1 Fc
B5: H1H6774P: anti-PRLR antibody, human IgG1 Fc; HCVR/LCVR SEQ ID NOs 34/42 (antibody, V domains shown)
VH: EVQLVESGGGLAQPGGSLRLSCVASGFTFSTYWMSWVRQAPGKGLDWVGNIKQDGSEQNYVDSVRGRFTISRDNAKNSLFLQMNSLRAEDTGVYYCATLLTKGDYWGQGTLVTVSS
VL: DIQMTQSPSSLSASVGDSVTITCRASQDISNYLDWFQQKPGKAPKSLIYAASILQGGVPSRFSGSGYGTDFTLTISSLQPEDFATYYCRQYKTYPFTFGPGTKVDIK
modifications: human IgG1 Fc
B6: H1H6976N: human IgG1 Fc form of H2M6976N; anti-PRLR; HCVR/LCVR SEQ ID NOs 386/394 (antibody, V domains shown)
VH: EVQLLESGGGFVQPGGSLRLSCAASGFTFSSYAMSWVRQAPGKGLEWVSIISSNGRYTYYADSVKGRFTISRDNSKNTLYLQMNSLRAEDTAVYYCATVTGDWFDPWGQGTLVTVSS
VL: DIQLTQSPSFLSASVGDRVTITCWASQDIDISLAWYQQKPGKAPKLLIYAASTLQSGVPSKFSGSGSGTDFTLTISSLQPEDFSTYYCQQLNSYPITFGQGTRLDIK
modifications: human IgG1 Fc
B7: H1H6966N: human IgG1 Fc form of H2M6966N; anti-PRLR; HCVR/LCVR SEQ ID NOs 338/346 (antibody, V domains shown)
VH: QVQLVQSGAEVQKPGASVKVSCKVSGYTLTALSIHWVRQAPGKGLEWMGNFDPGDGETIHAQKFQGRVTMTGDTSTDTAYMELSSLRSEDTAVYYCVGVTFDYWGQGTLVTVSS
VL: EIVMTQSPATLSVSPGERATLSCRASQSVASNLAWYQQKPGQAPRLLLYGASTRATGIPARFSGSGSGTEFTLTISSLQSEDFALYYCQHYNNWPLTFGGGTKVEIK
modifications: human IgG1 Fc
B8: H1H6967N: human IgG1 Fc form of H2M6967N; anti-PRLR; HCVR/LCVR SEQ ID NOs 354/362 (antibody, V domains shown)
VH: EVQLVESGGDLVHPGRSLRLSCAASGFPFDEYAMHWVRQVPGKGLEWVSGISWSNNNIGYADSVKGRFTISRDNAKNSLYLQMNSLRPEDTAFYYCAKSGIFDSWGQGTLVTVSS
VL: B7 VL with A30S, S31R, N32D, L48I, Y49H, T69A, T74I, L85V, H90Q
modifications: human IgG1 Fc

Molecular target: mfPRLR.mmh (monomeric macaca fascicularis PRLR)
Experiment: Surface plasmon resonance (Biacore T200), mAb-capture format
Type: binding
Details: 25° C., antibody-capture format, analyte mfPRLR.mmh
Protocol: (§1) Antibodies, expressed as human IgG1 Fc “[…]” designations), were captured onto an anti-human Fc sensor surface (mAb-capture format), and soluble monomeric (hPRLR.mmh; SEQ ID NO:401, or macaca fascicularis (mf) PRLR.mmh; SEQ ID NO:403) or dimeric (hPRLR.mFc; SEQ ID NO:402) PRLR protein was injected over the sensor surface. Measurements were conducted on a T200 Biacore instrument. Kinetic association (ka) and dissociation (kd) rate constants were determined by processing and fitting the data to a 1:1 binding model using Scrubber 2.0 curve fitting software.

Chain of mfPRLR.mmh (monomeric macaca fascicularis PRLR) (as listed by the source): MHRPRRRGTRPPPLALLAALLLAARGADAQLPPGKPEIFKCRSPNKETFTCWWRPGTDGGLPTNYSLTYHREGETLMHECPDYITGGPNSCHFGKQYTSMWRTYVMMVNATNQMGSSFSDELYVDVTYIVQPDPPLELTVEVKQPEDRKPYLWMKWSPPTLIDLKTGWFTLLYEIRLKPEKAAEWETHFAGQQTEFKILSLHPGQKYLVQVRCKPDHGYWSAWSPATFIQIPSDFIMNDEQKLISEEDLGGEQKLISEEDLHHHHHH

Row | Kd [nM] | Molecule | T½ [min]
1 | 6.2 | B1 | 19.8
2 | 1.14 | B2 | 88.2
3 | 0.511 | B3 | 55
4 | 129 | B4 | 0.7
5 | 1.77 | B5 | 13
6 | 1.75 | B6 | 14.2
7 | 0.416 | B7 | 35.6
8 | 3.08 | B8 | 19.7

Same assay, conditions: 37° C., antibody-capture format, analyte mfPRLR.mmh

Row | Kd [nM] | Molecule | T½ [min]
9 | 14.9 | B1 | 9.0
10 | 2.27 | B2 | 36.4
11 | 0.823 | B3 | 21
12 | 370 | B4 | 0.7
13 | 5 | B5 | 3
14 | 5.24 | B6 | 3.7
15 | 0.982 | B7 | 9.6
16 | 4.54 | B8 | 7.1

Molecular target: T2, hPRLR.mFc (soluble dimeric human PRLR) (Homo sapiens, UniProt P16471)
T2 construct: dimeric (hPRLR.mFc)
Experiment: as above
Type: binding
Details: 25° C., antibody-capture format, analyte hPRLR.mFc
Protocol: as §1

T2 sequence (P16471 with tags, fused parts or gaps): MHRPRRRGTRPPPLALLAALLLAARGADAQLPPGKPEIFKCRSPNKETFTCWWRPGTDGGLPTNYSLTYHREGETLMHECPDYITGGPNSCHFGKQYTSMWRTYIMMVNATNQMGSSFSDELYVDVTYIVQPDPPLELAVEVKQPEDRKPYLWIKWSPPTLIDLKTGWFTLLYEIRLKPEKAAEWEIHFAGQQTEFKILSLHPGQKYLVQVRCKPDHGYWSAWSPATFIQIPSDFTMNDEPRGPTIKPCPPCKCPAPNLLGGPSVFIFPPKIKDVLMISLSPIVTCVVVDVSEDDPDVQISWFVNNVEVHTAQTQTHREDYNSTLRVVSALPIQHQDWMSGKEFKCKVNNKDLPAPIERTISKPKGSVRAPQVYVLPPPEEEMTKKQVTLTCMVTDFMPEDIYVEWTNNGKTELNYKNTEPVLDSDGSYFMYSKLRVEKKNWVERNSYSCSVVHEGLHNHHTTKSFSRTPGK

Row | Kd [nM] | T½ [min] | Molecule
17 | 0.141 | 324.4 | B1
18 | 0.0684 | 587.8 | B2
19 | 0.0992 | 179 | B3
20 | 1.45 | 22.3 | B4
21 | 0.112 | 129 | B5
22 | 0.0906 | 114.4 | B6
23 | 0.0439 | 282.9 | B7
24 | 0.11 | 259.3 | B8

Same assay, conditions: 37° C., antibody-capture format, analyte hPRLR.mFc

Row | Kd [nM] | T½ [min] | Molecule
25 | 0.5 | 78.7 | B1
26 | 0.184 | 163.0 | B2
27 | 0.128 | 112 | B3
28 | 4.51 | 5.0 | B4
29 | 0.138 | 60 | B5
30 | 0.102 | 82.6 | B6
31 | 0.0672 | 91.3 | B7
32 | 0.107 | 118.8 | B8

Molecular target: T3, hPRLR.mmh (soluble monomeric human PRLR) (Homo sapiens, UniProt P16471)
T3 construct: soluble monomeric (hPRLR.mmh); mmh (myc-myc-hexahistidine)
Experiment: as above
Type: binding
Details: 25° C., antibody-capture format, analyte hPRLR.mmh
Protocol: as §1

T3 sequence (P16471 with tags, fused parts or gaps): as the sequence (as listed by the source) above, with V105I, T139A, M154I, T187I, I236T counted along it

Row | Kd [nM] | T½ [min] | Molecule
33 | 6.74 | 15.8 | B1
34 | 0.49 | 157.1 | B2
35 | 0.259 | 64 | B3
36 | 202 | 0.3 | B4
37 | 1.14 | 14 | B5
38 | 1.59 | 13.4 | B6
39 | 0.302 | 44.9 | B7
40 | 1.35 | 34.8 | B8

Same assay, conditions: 37° C., antibody-capture format, analyte hPRLR.mmh

Row | Kd [nM] | T½ [min] | Molecule
41 | 16.2 | 5.8 | B1
42 | 1.29 | 42.3 | B2
43 | 0.48 | 25 | B3
44 | 681 | 0.4 | B4
45 | 2.95 | 4 | B5
46 | 4.04 | 3.7 | B6
47 | 0.607 | 12.0 | B7
48 | 2.2 | 12.4 | B8

Molecular target: T1, PRLR-expressing cells (T47D)
Experiment: Antibody binding and internalization by PRLR-expressing cells (imaging)
Type: cell-based
Details: [mAb] (0.67 nM), alexa488 intensity in intracellular vesicles, 1 h at 37° C.
Protocol: In this Example, the internalization of anti-PRLR antibodies by PRLR-expressing cells (T47D) was assessed. Briefly, 20,000 T47D cells were seeded in collagen coated 96 well plates. […] Cells were then incubated with alexa488 conjugated anti-hFc Fab secondary antibodies for 30 minutes on ice followed by two additional PBS washes. Antibodies were allowed to internalize for 1 h at 37° C. in internalization buffer (PBS+2% FBS) or remained at 4° C. Cells were fixed in 4% formaldehyde, nuclei were stained with DRAQ5 (Cell signaling), and images were acquired on the ImageXpress micro XL (Molecular Devices). Whole cell alexa488 intensity at 37° C. (Binding) and the alexa488 intensity in the intracellular vesicles at 37° C. (Internalization) were determined via Columbus image analysis software (PerkinElmer).

Row | % Internalization relative to Control I [%] | Molecule
49 | 120.0 | B1
50 | 214.2 | B2
51 | 186.3 | B3
52 | 15.3 | B4
53 | 162.3 | B5
54 | 169.5 | B6
55 | 137.2 | B7
56 | 168.6 | B8

Same assay, conditions: [mAb] (0.67 nM), whole cell alexa488 intensity at 37° C.

Row | % Total Binding relative to Control I [%] | Molecule
57 | 89.7 | B1
58 | 225.9 | B2
59 | 176.7 | B3
60 | 2.0 | B4
61 | 173.7 | B5
62 | 180.4 | B6
63 | 111.3 | B7
64 | 158.6 | B8
